The target in this assay is T1, CD3 epsilon homodimer protein (UniProt P07766 23-126).
T1 construct: construct not described; homodimer as printed; also called CD3 (CD3 epsilon)
As to the kind of experiment: SPR Biacore T200, CD3 epsilon homodimer immobilized; vs unaltered GLS3000.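 Note: antibody variants flowed as analyte over CD3 epsilon homodimer amine-coupled to a CM4 chip, at 25 °C in HBS-EP+ running buffer, fitted with Biacore T200 Evaluation Software.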 For orientation: In SPR one partner is held on a chip, and binding of the other changes the refractive index at the surface.

Residue numbers refer to the chain shown, from its start. In names and notes the source's numbering stands.

T1 sequence (P07766 23-126): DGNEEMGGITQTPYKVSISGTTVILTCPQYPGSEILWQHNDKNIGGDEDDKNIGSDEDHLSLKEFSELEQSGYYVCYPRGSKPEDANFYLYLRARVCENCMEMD

B1: GLS3000 R24G (Kabat) L chain altered form, one-arm antibody with CE115HA000 (antibody, human IgG1, kappa, L234A L235A, N297A, name in Kabat numbering)
heavy: QVQLVESGGGVVQPGRSLRLSCAASGFTFSNAWMHWVRQAPGKGLEWVAQIKAKSNNYATYYAESVKGRFTISRDDSKNSLYLQMNSLKTEDTAVYYCRYVHYGAYYGVDAWGQGTTVTVSSASTKGPSVFPLAPSSKSTSGGTAALGCLVKDYFPEPVTVSWNSGALTSGVHTFPAVLQSSGLYSLSSVVTVPSSSLGTQTYICNVNHKPSNTKVDKKVEPKSCDKTHTCPPCPAPEAAGGPSVFLFPPKPKDTLMISRTPEVTCVVVDVSHEDPEVKFNWYVDGVEVHNAKTKPREEQYASTYRVVSVLTVLHQDWLNGKEYKCKVSNKALPAPIEKTISKAKGQPREPQVYTLPPSRCELTKNQVSLSCAVKGFYPSDIAVEWESNGQPENNYKTTPPVLDSDGSFFLVSKLTVDKSRWQQGNVFSCSVMHEALHNHYTQKSLSLSPDYKDDDDK
chain: EPKSSDKTHTCPPCPAPELLGGPSVFLFPPKPKDTLMISRTPEVTCVVVDVSHEDPEVKFNWYVDGVEVHNAKTKPREEQYNSTYRVVSVLTVLHQDWLNGKEYKCKVSNKALPAPIEKTISKAKGQPREPQVCTLPPSRDELTKNQVSLWCLVKGFYPSDIAVEWESNGQPENNYKTTPPVLDSDGSFFLYSKLTVDKSRWQQGNVFSCSVMHEALHNRYTQKSLSLSP
light: DIVMTQSPLSLPVTPGEPASISCGSSQSLVHSNRNTYLHWYQQKPGQAPRLLIYKVSNRFSGVPDRFSGSGSGTDFTLKISRVEAEDVGVYYCGQGTQVPYTFGQGTKLEIKRTVAAPSVFIFPPSDEQLKSGTASVVCLLNNFYPREAKVQWKVDNALQSGNSQESVTEQDSKDSTYSLSSTLTLSKADYEKHKVYACEVTHQGLSSPVTKSFNRGEC
notes: one-arm antibody
B1: the “KD ratio to GLS3000 (Affinity up)” value was determined as 0.92.

B2: GLS3000 R29D (Kabat) L chain altered form, one-arm antibody with CE115HA000 (antibody, human IgG1, kappa, L234A L235A, N297A, name in Kabat numbering)
heavy: B1 heavy
chain: B1 chain
light: B1 light with G24R, R34D
notes: one-arm antibody
For B2, the “KD ratio to GLS3000 (Affinity up)” value was found to be 1.58.

B3: GLS3000 R24S (Kabat) L chain altered form, one-arm antibody with CE115HA000 (antibody, human IgG1, kappa, L234A L235A, N297A, name in Kabat numbering)
heavy: B1 heavy
chain: B1 chain
light: B1 light with G24S
notes: one-arm antibody
On to B3, for which the “KD ratio to GLS3000 (Affinity up)” value was found to be 0.97.

B4: GLS3000 R29G (Kabat) L chain altered form, one-arm antibody with CE115HA000 (antibody, human IgG1, kappa, L234A L235A, N297A, name in Kabat numbering)
heavy: B1 heavy
chain: B1 chain
light: B1 light with G24R, R34G
notes: one-arm antibody
Consider B4, for which the “KD ratio to GLS3000 (Affinity up)” value was determined as 0.62.

B5: GLS3000 R54A (Kabat) L chain altered form, one-arm antibody with CE115HA000 (antibody, human IgG1, kappa, L234A L235A, N297A, name in Kabat numbering)
heavy: B1 heavy
chain: B1 chain
light: B1 light with G24R, R59A
notes: one-arm antibody
As to B5, the “KD ratio to GLS3000 (Affinity up)” value came to 0.85.

B6: GLS3000 S27aE (Kabat) L chain altered form, one-arm antibody with CE115HA000 (antibody, human IgG1, kappa, L234A L235A, N297A, name in Kabat numbering)
heavy: B1 heavy
chain: B1 chain
light: B1 light with G24R, S28E
notes: one-arm antibody
Consider B6, for which the “KD ratio to GLS3000 (Affinity up)” value was found to be 0.94.

B7: GLS3000 R24Q (Kabat) L chain altered form, one-arm antibody with CE115HA000 (antibody, human IgG1, kappa, L234A L235A, N297A, name in Kabat numbering)
heavy: B1 heavy
chain: B1 chain
light: B1 light with G24Q
notes: one-arm antibody
B7: the “KD ratio to GLS3000 (Affinity up)” value was 0.87.

B8: GLS3000 R29T (Kabat) L chain altered form, one-arm antibody with CE115HA000 (antibody, human IgG1, kappa, L234A L235A, N297A, name in Kabat numbering)
heavy: B1 heavy
chain: B1 chain
light: B1 light with G24R, R34T
notes: one-arm antibody
For B8, the “KD ratio to GLS3000 (Affinity up)” value stood at 1.02.

B9: GLS3000 S26D (Kabat) L chain altered form, one-arm antibody with CE115HA000 (antibody, human IgG1, kappa, L234A L235A, N297A, name in Kabat numbering)
heavy: B1 heavy
chain: B1 chain
light: B1 light with G24R, S26D
notes: one-arm antibody
Regarding B9, the “KD ratio to GLS3000 (Affinity up)” value came to 1.06.

B10: GLS3000 S26P (Kabat) L chain altered form, one-arm antibody with CE115HA000 (antibody, human IgG1, kappa, L234A L235A, N297A, name in Kabat numbering)
heavy: B1 heavy
chain: B1 chain
light: B1 light with G24R, S26P
notes: one-arm antibody
Turning to B10, the “KD ratio to GLS3000 (Affinity up)” value worked out at 0.67.

B11: GLS3000 S27aD (Kabat) L chain altered form, one-arm antibody with CE115HA000 (antibody, human IgG1, kappa, L234A L235A, N297A, name in Kabat numbering)
heavy: B1 heavy
chain: B1 chain
light: B1 light with G24R, S28D
notes: one-arm antibody
B11: the “KD ratio to GLS3000 (Affinity up)” value is 0.94.

B12: GLS3000 S25V (Kabat) L chain altered form, one-arm antibody with CE115HA000 (antibody, human IgG1, kappa, L234A L235A, N297A, name in Kabat numbering)
heavy: B1 heavy
chain: B1 chain
light: B1 light with G24R, S25V
notes: one-arm antibody
Take B12: the “KD ratio to GLS3000 (Affinity up)” value is 0.74.

B13: GLS3000 S25T (Kabat) L chain altered form, one-arm antibody with CE115HA000 (antibody, human IgG1, kappa, L234A L235A, N297A, name in Kabat numbering)
heavy: B1 heavy
chain: B1 chain
light: B1 light with G24R, S25T
notes: one-arm antibody
For B13, the “KD ratio to GLS3000 (Affinity up)” value was 0.75.

B14: GLS3000 R24P (Kabat) L chain altered form, one-arm antibody with CE115HA000 (antibody, human IgG1, kappa, L234A L235A, N297A, name in Kabat numbering)
heavy: B1 heavy
chain: B1 chain
light: B1 light with G24P
notes: one-arm antibody
Regarding B14, the “KD ratio to GLS3000 (Affinity up)” value is 0.34.

B15: GLS3000 S25E (Kabat) L chain altered form, one-arm antibody with CE115HA000 (antibody, human IgG1, kappa, L234A L235A, N297A, name in Kabat numbering)
heavy: B1 heavy
chain: B1 chain
light: B1 light with G24R, S25E
notes: one-arm antibody
Turning to B15, the “KD ratio to GLS3000 (Affinity up)” value was determined as 6.54.

B16: GLS3000 S25A (Kabat) L chain altered form, one-arm antibody with CE115HA000 (antibody, human IgG1, kappa, L234A L235A, N297A, name in Kabat numbering)
heavy: B1 heavy
chain: B1 chain
light: B1 light with G24R, S25A
notes: one-arm antibody
With B16, the “KD ratio to GLS3000 (Affinity up)” value worked out at 0.73.

B17: GLS3000 R29I (Kabat) L chain altered form, one-arm antibody with CE115HA000 (antibody, human IgG1, kappa, L234A L235A, N297A, name in Kabat numbering)
heavy: B1 heavy
chain: B1 chain
light: B1 light with G24R, R34I
notes: one-arm antibody
As to B17, the “KD ratio to GLS3000 (Affinity up)” value is 1.6.

B18: GLS3000 R29S (Kabat) L chain altered form, one-arm antibody with CE115HA000 (antibody, human IgG1, kappa, L234A L235A, N297A, name in Kabat numbering)
heavy: B1 heavy
chain: B1 chain
light: B1 light with G24R, R34S
notes: one-arm antibody
On to B18, for which the “KD ratio to GLS3000 (Affinity up)” value is 1.05.

B19: GLS3000 S25P (Kabat) L chain altered form, one-arm antibody with CE115HA000 (antibody, human IgG1, kappa, L234A L235A, N297A, name in Kabat numbering)
heavy: B1 heavy
chain: B1 chain
light: B1 light with G24R, S25P
notes: one-arm antibody
For B19, the “KD ratio to GLS3000 (Affinity up)” value came to 0.79.

B20: GLS3000 S25L (Kabat) L chain altered form, one-arm antibody with CE115HA000 (antibody, human IgG1, kappa, L234A L235A, N297A, name in Kabat numbering)
heavy: B1 heavy
chain: B1 chain
light: B1 light with G24R, S25L
notes: one-arm antibody
Turning to B20, the “KD ratio to GLS3000 (Affinity up)” value stood at 4.93.

B21: GLS3000 R29V (Kabat) L chain altered form, one-arm antibody with CE115HA000 (antibody, human IgG1, kappa, L234A L235A, N297A, name in Kabat numbering)
heavy: B1 heavy
chain: B1 chain
light: B1 light with G24R, R34V
notes: one-arm antibody
Consider B21, for which the “KD ratio to GLS3000 (Affinity up)” value came out at 2.25.

B22: GLS3000 R24Y (Kabat) L chain altered form, one-arm antibody with CE115HA000 (antibody, human IgG1, kappa, L234A L235A, N297A, name in Kabat numbering)
heavy: B1 heavy
chain: B1 chain
light: B1 light with G24Y
notes: one-arm antibody
Turning to B22, the “KD ratio to GLS3000 (Affinity up)” value was determined as 0.94.

B23: GLS3000 R24T (Kabat) L chain altered form, one-arm antibody with CE115HA000 (antibody, human IgG1, kappa, L234A L235A, N297A, name in Kabat numbering)
heavy: B1 heavy
chain: B1 chain
light: B1 light with G24T
notes: one-arm antibody
In the case of B23, the “KD ratio to GLS3000 (Affinity up)” value came out at 1.03.

B24: GLS3000 R29P (Kabat) L chain altered form, one-arm antibody with CE115HA000 (antibody, human IgG1, kappa, L234A L235A, N297A, name in Kabat numbering)
heavy: B1 heavy
chain: B1 chain
light: B1 light with G24R, R34P
notes: one-arm antibody
For B24, the “KD ratio to GLS3000 (Affinity up)” value was 14.

B25: GLS3000 S26E (Kabat) L chain altered form, one-arm antibody with CE115HA000 (antibody, human IgG1, kappa, L234A L235A, N297A, name in Kabat numbering)
heavy: B1 heavy
chain: B1 chain
light: B1 light with G24R, S26E
notes: one-arm antibody
For the molecule B25, the “KD ratio to GLS3000 (Affinity up)” value was 0.9.

B26: GLS3000 S25I (Kabat) L chain altered form, one-arm antibody with CE115HA000 (antibody, human IgG1, kappa, L234A L235A, N297A, name in Kabat numbering)
heavy: B1 heavy
chain: B1 chain
light: B1 light with G24R, S25I
notes: one-arm antibody
B26: the “KD ratio to GLS3000 (Affinity up)” value stood at 0.67.

B27: GLS3000 S27aG (Kabat) L chain altered form, one-arm antibody with CE115HA000 (antibody, human IgG1, kappa, L234A L235A, N297A, name in Kabat numbering)
heavy: B1 heavy
chain: B1 chain
light: B1 light with G24R, S28G
notes: one-arm antibody
On to B27, for which the “KD ratio to GLS3000 (Affinity up)” value stood at 0.8.

B28: GLS3000 S25D (Kabat) L chain altered form, one-arm antibody with CE115HA000 (antibody, human IgG1, kappa, L234A L235A, N297A, name in Kabat numbering)
heavy: B1 heavy
chain: B1 chain
light: B1 light with G24R, S25D
notes: one-arm antibody
For B28, the “KD ratio to GLS3000 (Affinity up)” value worked out at 8.86.

B29: GLS3000 R29Y (Kabat) L chain altered form, one-arm antibody with CE115HA000 (antibody, human IgG1, kappa, L234A L235A, N297A, name in Kabat numbering)
heavy: B1 heavy
chain: B1 chain
light: B1 light with G24R, R34Y
notes: one-arm antibody
B29: the “KD ratio to GLS3000 (Affinity up)” value came out at 1.08.

B30: GLS3000 S25M (Kabat) L chain altered form, one-arm antibody with CE115HA000 (antibody, human IgG1, kappa, L234A L235A, N297A, name in Kabat numbering)
heavy: B1 heavy
chain: B1 chain
light: B1 light with G24R, S25M
notes: one-arm antibody
Consider B30, for which the “KD ratio to GLS3000 (Affinity up)” value is 1.6.

B31: GLS3000 R29A (Kabat) L chain altered form, one-arm antibody with CE115HA000 (antibody, human IgG1, kappa, L234A L235A, N297A, name in Kabat numbering)
heavy: B1 heavy
chain: B1 chain
light: B1 light with G24R, R34A
notes: one-arm antibody
Take B31: the “KD ratio to GLS3000 (Affinity up)” value came out at 1.15.

B32: GLS3000 R29L (Kabat) L chain altered form, one-arm antibody with CE115HA000 (antibody, human IgG1, kappa, L234A L235A, N297A, name in Kabat numbering)
heavy: B1 heavy
chain: B1 chain
light: B1 light with G24R, R34L
notes: one-arm antibody
B32: the “KD ratio to GLS3000 (Affinity up)” value is 0.9.
